Assay results reported in patent publication US11160886B2, “Method for labeling of sensitive and thermosensitive targeting biomolecules with technetium based compounds” (BRACCO IMAGING SPA, priority 2016, dated 2021).

Key:
[1] = Sera and homogenates stability; assay type: in vitro ADME, human and rat; settings: 37° C.
Method: Sera and Homogenates Stability.
The in vitro stability of complex 1, complex 2, complex 9 and complex 11 was evaluated by monitoring the RCP at different time points using the following procedures. In a propylene test tube 50 μl of purified [^99mTc(N)(PNP3OH)]-compound were added to: a) 450 μl of human serum, b) 450 μl of rat serum, c) 450 μl of homogenate of rat liver and d) 450 μl of homogenate of rat kidneys. The resulting mixture was incubated at 37° C. for 4 h.
The sample was loaded onto a cartridge, preconditioned with MeOH (1 ml) and equilibrated with water (1 ml), and rinsed with MeOH 5% (3 ml). The activity was eluted with a mixture of EtOH/saline 60% (1 ml). Each fraction was collected and the activity measured using a counter (Cobra II, Packard) to determinate the elution profile. 80% of the loaded activity was collected in the elution fraction. An aliquot of this solution (100 μl) was analyzed by HPLC to assess the degradation of the ^99mTc(N)-complexes (FIG. 11).

[2] = test system: αvβ3 positive M21 and αvβ3 negative M21L cell lines; experiment: Cell uptake and internalization; assay type: cell-based, human; settings: M21 and M21L cells, 37° C., 90 min
Method: Cell Studies of complex 9 were conducted on M21 and M21L cells grown in RPMI1640 (Gibco Life Technologies). Expression of αvβ3 and of αvβ5 in the cells lines was analyzed by flow cytometry.
Cellular uptakes of the radiolabeled peptide, were assessed in suspension at 37° C. in human melanoma αvβ3 positive M21 and negative M21L cell lines. Preliminary studies were performed in order to set the experimental conditions to avoid cell damage and/or death during uptake experiments. […] Afterward, 1 ml of the cell suspension (1×10^6 cells/ml) was incubated with intermittent agitation with 10 μCi (10 μL) of ^99mTc complexes. At 90 min, the tubes were vortexed, the cells were transferred in Eppendorf microcentrifuge tube (1.5 ml) and the incubation was interrupted by centrifugation (3000 rpm for 5 min at 10° C.). […] After centrifugation (3000 rpm for 10 min at 10° C.) the supernatant was separated from the pellet, each fraction was collected, placed in a separated counting tube and the activity was determined using a counter (Cobra II, Packard) to determinate both the cell uptake and internalized fraction.
The uptake of complexes is expressed as percentage cell uptake of the total activity on 10^6 cells (% cell uptake/10^6 cells). […]

Metabolites in the urine = assay type: in vivo, rats; settings: urine at 2 and 4 h p.i.
Method: Metabolites in the Urine.
At 2 and 4 h p.i. the urine was collected directly from the bladder and analyzed by HPLC (FIG. 12).

[3] = Isomeric conversion over 24 h at 37° C.; assay type: physicochemical
Method: Before the experiments for both complex 11 and complex 9, the two isomers were isolated by HPLC and their isomeric conversion was assessed over 24 h at 37° C.
In addition, a faster b vs a change was noticed. Therefore, for the radiolabeled peptide the mixture of the two isomeric forms in ratio 70/30 was directly utilized for receptor affinity studies.

## [^99mTc(N)(PNP3OH)(Cys-cRGDfK)]^+ [Complex 9]
[1]; human and rat sera, 3 h
  Sera stability: high sera stability
[1]; human serum, rat serum, rat kidneys homogenate, rat liver homogenate, 2 h
  In vitro stability (HPLC peaks versus control): remarkable in vitro stability
[2]
  Recognition by molecular target (cellular uptake, FIG. 10): recognized by the corresponding molecular target
Metabolites in the urine
  In vivo metabolism (urine HPLC, FIG. 12): remained stably incorporated into the structure of the final complex
[3]
  Isomeric conversion a vs b: reversible a vs b and b vs a conversion
